Patent publication US20040072753A1 (published 2004)
Where no end group is shown, it is not given here.

B1: Aβ 25-35 (peptide)
peptide: GSNKGAIIGLM
modifications: also: biotinylated in some assays, site not given here
notes: Used both biotinylated and unlabelled; also called biotinylated Aβ 25-35
B2: EAβBP peptide (ERAB residues 99-108) (peptide, UniProt Q99714 99-108, looked up)
peptide: KTYNLKKGQT
notes: range 99-108; 21 covers only ERAB 101-109; also called EAβBD

Experiments:
[1] = target: T1, recombinant human cyclin B1 (human, UniProt P14635 1-433, limits assumed); assay: ELISA, cyclin B1-coated plate
T1 construct: Coated on ELISA plates
Description: (§1) ELISA plates were coated with recombinant human cdc2 or the cdc2 119-133 peptide fragment (CDKP1) (1 μg ml⁻¹) in carbonate buffer and unoccupied sites blocked with 5% (w/v) dried milk. […] After washing to remove unbound material, an alkaline phosphatase polymer-streptavidin conjugate (Sigma, Dorset, UK) was added and incubated at 37° C. for 2 hours. After washing to remove unbound material p-nitrophenylphosphate substrate was added and absorbance at 405 nm determined.
Cyclins are co-factors for cdc2 which are required for enzyme activity. These proteins also contain substrate recognition sequences which may play a role in the recruitment of substrate molecules to the active cdc2/cyclin complex. The recombinant cdc2/cyclin enzyme complex used in the above phosphorylation experiments contained cyclin B1. […] Binding assays as described above using cyclin B1 coated plates were carried out.

[2] = target: B2; assay: ELISA, EAβBP-coated plate
Description: (§2) After washing to remove unbound material, an alkaline phosphatase polymer-streptavidin conjugate (Sigma, Dorset, UK) was added and incubated at 37° C. for 2 hours. After washing to remove unbound material, p-nitrophenylphosphate substrate was added and absorbance at 405 nm determined.

recombinant human cdc2 = target: T2, recombinant human cdc2 (human, UniProt P06493 1-297, limits assumed); assay: ELISA, cdc2-coated plate, biotinylated peptide 200 pM
T2 construct: Coated on ELISA plates at 1 µg/ml; also called p34-cdc2
Description: as §1

[3] = target: T3, CAβBP peptide (catalase residues 400-409) (human, UniProt P04040 400-409); assay: ELISA, CAβBP-coated plate
T3 construct: range 400-409; 20 covers only catalase 402-414; also called CAIIBP; CARBP
T3 peptide (looked up): GAPNYYPNSF
Description: as §2

Aβ 1-42 = target: T4, Aβ 1-42 (biotinylated (LinKit-Biolink kit, site not stated) where used as the labelled tracer; unlabelled where used as competitor or in activity assays); assay: competition ELISA, EAβBP-coated plate, Scatchard analysis
T4 construct: catalase and cytotoxicity assays; also called biotinylated Aβ 1-42; Amyloid-β 1-42
Description: as §2

T2 sequence (P06493 whole entry): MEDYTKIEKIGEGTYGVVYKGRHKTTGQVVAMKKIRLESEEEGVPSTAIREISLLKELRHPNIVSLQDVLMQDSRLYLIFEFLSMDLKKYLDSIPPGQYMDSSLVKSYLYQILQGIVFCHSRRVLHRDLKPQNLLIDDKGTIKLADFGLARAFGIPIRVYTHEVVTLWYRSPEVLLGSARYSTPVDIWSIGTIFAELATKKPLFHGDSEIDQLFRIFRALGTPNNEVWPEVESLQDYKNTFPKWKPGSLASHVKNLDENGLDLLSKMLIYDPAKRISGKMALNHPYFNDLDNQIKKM
T1 sequence (P14635 whole entry): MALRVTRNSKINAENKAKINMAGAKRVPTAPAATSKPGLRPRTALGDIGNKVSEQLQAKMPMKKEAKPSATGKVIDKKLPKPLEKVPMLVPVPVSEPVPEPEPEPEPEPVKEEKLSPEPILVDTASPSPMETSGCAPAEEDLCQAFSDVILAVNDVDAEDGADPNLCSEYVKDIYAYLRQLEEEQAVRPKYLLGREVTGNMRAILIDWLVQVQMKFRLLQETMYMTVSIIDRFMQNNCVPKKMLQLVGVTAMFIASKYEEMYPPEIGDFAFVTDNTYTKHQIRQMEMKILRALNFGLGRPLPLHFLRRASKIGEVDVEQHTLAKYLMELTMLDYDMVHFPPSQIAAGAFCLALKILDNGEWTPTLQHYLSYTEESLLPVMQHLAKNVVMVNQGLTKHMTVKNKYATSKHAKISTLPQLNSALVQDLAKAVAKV

Question: What does the source list for B1?
Answer: binding result [1]: binds; binding result [2]: no binding (tested: 200 pM biotinylated peptide); binding result (recombinant human cdc2): binds

Question: Does VHHQKLVFFAEDVGSNK (also: biotinylated, site not given here, also called biotinylated Aβ 12-28) [Aβ 12-28] bind [3]?
Answer: no binding (tested: 200 pM biotinylated peptide)

Question: For B2, which Kd (Aβ 1-42) is on record?
Answer: 0.107 µM
